Assay results reported in article PMC8196545 (Cell reports, 2021).

B1: c5221 (antibody, V domains shown)
VH: QPQMKQSGIEVKKPGAAVKVSCKPSGYWFIACGISWVRQAPGRGLEWLGWVYPYNGKVNLARKFWGRVTLTADRSTETAYMELKSLTSDDTAIYYCARDSEQYDAAMPNYFTEYGMDVWGQGTTVIVSS
VL: EIVLTQSPDTLSLSPGETAALSCRASQSITGKGLAWYKQRPGQPPSLFVFGVSKRAAGVPDRVSGSGSGTDYILTIRRLEPEDSAVYFCQQYQDPARTFGQGTKLEIK
B2: c29288 (antibody, V domains shown)
VH: QVRLQESGPGLVRPSETLSLTCLVSGDSITSNYWSWIRQPPGKTLEWIGFMYNSGDANYNPSLQSRVSISADTAKNHFALRLTSVTAADTAVYYCARHPSRGSDYESATGDTYYYYYGMDVWGPGIAVAVSS
VL: DIQMTQSTPSLSASLGDKITISCQASRDIDTSLNWYQQKPGKSPKLLIVAASTLETGVPSRFSASGSGTHFTLTINDLHRDDVATYFCQQYMGLPLTFGGGTRVDLR
B3: c21122 (antibody, V domains shown)
VH: QVQLAQSAAEVKRPGASVKVSCKVSGNTLMEVSIQWVRQTPGKGLEWLGGFAPEKDDWVYAQKFLGRVTMTEDTSTDIAYMHMNSLTSDDTATYYCVGGWQAWGQGTLVTVSS
VL: DIQMTQSPSSLSASVGDRITITCRASQDIINYLAWYQQQAGRAPKSLIYAASSLQSGVPSKFSGSGSGTNFSLTISSLQPEDFATYYCQQYYSYPLTFGGGTKVDLR
B4: c5539 (antibody, V domains shown)
VH: QVRLEQWGPGLLKPSETLSLTCAVYGESFDDYSWTWIRQTPSLGLQWIGEIRPFGEIVHKSSLSGRLSFSRDASMRRVYLKLTSVTAADAGVYFCARGPVIYQNPHFYYRGYNVWGQGTTVTVSA
VL: DVAVTQSPRSLVVTPGETATIFCRSSQSLRHGNGMHYLDWYLQKPGQSPQLLIYLTSNRASGVPDRFSGSGSGTEFTLKISRVEADDVGIYYCMQAIQDPRVFGQGTRLELK
B5: c11450 (antibody, V domains shown)
V domain 1: EVQLAQSGAEMRKPGTTVRISCVISGHTTTDYYVHWVQQAPGKGPQWMGLINFEDANTVYSQSFRGRVSISADISEKTVFLDLTGLTSGDTALYFCTTHTLEKDSGDYVSAFDSWGQGTLLSVSP
V domain 2: QSMLTQPPSISAVPGQKVIISCSGRTSNIGTNFVSWYQQVPGAAPRLLMYDNSNRPSGISDRFSGAKSGSTATLAITALQTEDEADYYCGSWDSGLNPPIFVFGPGTRVFVI
B6: c13501 (antibody, V domains shown)
VH: QVQLQQWGAGLLKPSETLSLTCAIYGGSFDDNSWTWIRQSPGGGLEWIGEIKYSGTSDYNLSLKSRITMSIDMSKKQFSLKLTSVTAADTGLYFCARARLSKFNSAWSWEHHYYMDVWATGTAVTVSS
VL: DIQMTQSPSSLSASVGDRVTVTCRASQNIGNYLNWYQQKPGKAPKLLIFATSTLHGGVPSRFSGSGSGTDFTLSITNVQSEDVAIYFCQQSYSVPYSFGRGTSLDMR
B7: c11673 (antibody, V domains shown)
VH: EVKLVESGGTQVQPGGSLRISCVGSGIRFSSYSFNWVRQAPGKGPEWLAYISASPFGRSKVTYAQSVEGRFTVSRDNDANSLYLQMTGLTRDDTAVYYCARAPYYEGNFHYNYAMDVWGLGTPVIVSS
VL: GVVLTQSPGTLSVSPGERATVSCRASQSLSRDSLVWYQQKPGQPPRLLIFGTSNRVPGIPDRFSGGGSGTQFTLTISRLEPEDFAVYYCQNYGLSPLYSFGQGTKLEIK
B8: c11452 (antibody, V domains shown)
VH: EVKLVESGGTQVQPGGSLRISCVGSGFRFSSYSFNWVRQAPGKGPEWLTYISASPFGRSKVTYAPSVEGRFIVSRDNDANSLYLQMTGLTRDDTAVYHCARAPYYEGNFQYNYAMDVWGLGTTVIVSS
VL: GVVLTQSPGTLSLSPGERATVSCRASQSLSRDSLVWYQQKPGQPPRLLIYGTSNRVPGIPDRFSGGGSGTQFTLTISRLEPEDFAVYYCQNYGLSPLYSFGQGTKLEIK
B9: c10919 (antibody, V domains shown)
VH: EVKLVESGGTQVQPGGSLRISCVGSGFRFSSYSFNWVRQAPGKGPEWLAYISASPFGRSKVTYAQSVEGRFTVSRDNDANSLYLQMTGLTRDDTAVYYCARAPYYEGNFHYNYAMDVWGLGTPVIVSS
VL: GVVLTQSPGTLSVSPGERATISCRASQSLSRDSLVWYQQKPGQPPRLLIYGTSNRVPGIPDRFSGGGSGTQFTLTISRLEPEDFAVYYCQNYGLSPLFSFGQGTKLEIK
B10: c11395 (antibody, V domains shown)
VH: DVQLLQSNPQVTKPGTTMKISCKTSGFTFSDHFIHWVRLTPARGLEWLGLLDPQGGESVTVFSETFKDRVTMTADTSKNIAYMELHTLTSEDTALYFCATTTLENDDGDYVAAFDFWGQGTPVIVSS
VL: QSVLTQTPSVSAAPGQKVTISCSGSTSNIGSNFVSWYQHSPGAAPRLIIYNNAERPSGIPARFSGSKSGSSATLAITGLQTEDEAEYFCAAWNNGLKSAHYVFGTGTRLSVL
B11: c27071 (antibody, V domains shown)
VH: QFRLEQSGAEVKRPGSSVKVSCKATGGTFHTFVLSWVRQAPGQALEWMGGIIPIFGTAKYAQRFQGRVTFTTDEATNTAYMDLRRLTSDDTAVYFCARSATSDTALVDYGDYEADTFYHNHMDVWGGGTSVTVSS
VL: QSVLTQPPSASATPGQRVTISCSGSSSNIGSNSVTWYHQLPGTAPKVLIYSNDRRPSGVPDRFSGSKSGTSASLAISGLQSDDEGDFYCAAWDDSLKSPVFGGGTKLTVL
B12: c18622 (antibody, V domains shown)
VH: EVRLLESGGGLVQPGQSLRLSCAASGFTFRNYALAWVRQTPRKGLEWVSLLSSSGDGAFYADSLKGRFTISRDNSKNTLYLEGHSLRADDSAIYYCVKVRWLQYDWHFDLWGRGALVTVSS
VL: AIRMTQSPSTLSASVGDRVTIACRASQDIGSSLAWYQQRPGQAPRLLIYKASVLEGGVPSRFSGSGSGTEFRLIISSLQADDYATYYCQQYSGYSCTFGQGTKVDIT
B13: c1369 (antibody, V domains shown)
VH: QVRLHQWGEGLLRPSDTLSLTCSLSGNVFYRTFFNWIRQSPGKGLEWIAEVSFAGDWTYNPSLKSRVTTYVDGFKYHVSLQMRSMTAADAGVYYCASGGGSFDVDSWGQGIRVTVSS
VL: EIVLTQTPLSSSVTLGQSASISCRSSQSLQHSNGNTYLSWFQQRPGQPPRLLIRKISNRFSEVPDRFTGSGSGTDFTLTIDRVEPEDVGTYYCVQATQFPWTFGQGTTVDIT
B14: c1141 (antibody, V domains shown)
VH: QVRLHQWGEGLLRPSDTLSLTCSLSGNVFYETFFNWIRQSPGKGLEWIAEVSFAGDWNYNPSLKSRVTTYVDGFKYHASLHMRSMTAADAGVYYCAAGGGSFDVHSWGQGIRVTVSS
VL: EIVLTQTPLSSSVTLGQAASISCTSNHSLQHSNGNTYLSWFQQRPDQPPRLLIRKISNRGSGVPDRFSGSGSGTHFTLTIDRVEPEDVGTYYCVQATQFPWTFGQGTTVDIT
B15: c11058 (antibody, V domains shown)
V domain 1: EVRLDQSGTEMRKPGTRVRLSCKVSGHTTSDFFVHWVQQTPQGGPQWMGLINVEDENVIYADIFQGRISIVADTSKKTVFLDLTDLTFEETALYFCTTHTLQKDTGDYVAAFDSWGRGTLLYVSS
V domain 2: QPVLTQPPSVSAVPGQKVIISCSGRTSNIGTNFVSWYQQFPGAAPKLLIYDDFNRPSGISDRFSASKSDTSATLAITALQPGDEAEYYCGAWDSGLNPAVFVFGSGTRVFVL

target: HIV-1 NL4-3 Env on infected cells (HIV-1 group M subtype B, NL4-3 (pNL4-3 …, strain))

Row | Binder | binding result
1 | B1 | binds
2 | B2 | binds
3 | B3 | binds
4 | B4 | binds
5 | B5 | binds
6 | B6 | binds
7 | B7 | binds
8 | B8 | binds
9 | B9 | binds
10 | B10 | binds
11 | B11 | binds
12 | B12 | binds
13 | B13 | binds
14 | B14 | binds
15 | B15 | binds
